From patent publication US20210324028A1 (Pfizer, published 2021)

T1: human IL-2Rβ (human, UniProt P14784 27-240, limits assumed)
T1 construct: also called hIL-2Rβ; IL-2 receptor beta
T1 sequence (looked up): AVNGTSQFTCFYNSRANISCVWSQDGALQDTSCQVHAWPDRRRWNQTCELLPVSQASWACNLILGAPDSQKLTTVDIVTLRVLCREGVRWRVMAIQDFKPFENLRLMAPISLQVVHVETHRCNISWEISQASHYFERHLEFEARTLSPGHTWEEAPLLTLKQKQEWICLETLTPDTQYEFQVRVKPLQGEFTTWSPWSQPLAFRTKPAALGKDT


Assays:
[1] = target: T2, human IL-15Rα (human, UniProt Q13261 31-205, limits assumed); assay: SPR, steady state
T2 construct: also called hIL-15Rα; IL-15 receptor alpha
T2 sequence (Q13261 31-205 limits assumed): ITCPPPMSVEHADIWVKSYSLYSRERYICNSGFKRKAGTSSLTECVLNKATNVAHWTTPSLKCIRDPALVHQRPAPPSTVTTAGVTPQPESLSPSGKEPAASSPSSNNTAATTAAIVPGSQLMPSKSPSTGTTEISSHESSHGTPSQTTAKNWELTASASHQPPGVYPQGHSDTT

[2] = target: T1, human IL-2Rβ; assay: SPR 37C
[3] = target: T1, human IL-2Rβ; assay: SPR, steady state

| Kd [1] [nM] | binding result [2] | Kd [3] [nM] | Binder |
| --- | --- | --- | --- |
| 102 | no binding |  | hIL-15 V49R/D8A (ligand) NWVNVISALKKIEDLIQSMHIDATLYTESDVHPSCKVTAMKCFLLELQRISLESGDASIHDTVENLIILANNSLSSNGNVTESGCKECEELEEKNIKEFLQSFVHIVQMFINTGGGGSGHHHHHHHHGGGLNDIFEAQKIEWHE |
| 154 |  | 274 | hIL-15 V49R/S29A (ligand) NWVNVISDLKKIEDLIQSMHIDATLYTEADVHPSCKVTAMKCFLLELQRISLESGDASIHDTVENLIILANNSLSSNGNVTESGCKECEELEEKNIKEFLQSFVHIVQMFINTGGGGSGHHHHHHHHGGGLNDIFEAQKIEWHE |
| > 500 |  | > 500 | hIL-15 V49R/V31D (ligand) NWVNVISDLKKIEDLIQSMHIDATLYTESDDHPSCKVTAMKCFLLELQRISLESGDASIHDTVENLIILANNSLSSNGNVTESGCKECEELEEKNIKEFLQSFVHIVQMFINTGGGGSGHHHHHHHHGGGLNDIFEAQKIEWHE |
|  | no binding |  | hIL-15 V49R/N4I (ligand) NWVIVISDLKKIEDLIQSMHIDATLYTESDVHPSCKVTAMKCFLLELQRISLESGDASIHDTVENLIILANNSLSSNGNVTESGCKECEELEEKNIKEFLQSFVHIVQMFINTGGGGSGHHHHHHHHGGGLNDIFEAQKIEWHE |
| 94.7 | no binding |  | hIL-15 V49R/N4S (ligand) NWVSVISDLKKIEDLIQSMHIDATLYTESDVHPSCKVTAMKCFLLELQRISLESGDASIHDTVENLIILANNSLSSNGNVTESGCKECEELEEKNIKEFLQSFVHIVQMFINTGGGGSGHHHHHHHHGGGLNDIFEAQKIEWHE |
|  | no binding |  | hIL-15 V49R/K10P (ligand) NWVNVISDLPKIEDLIQSMHIDATLYTESDVHPSCKVTAMKCFLLELQRISLESGDASIHDTVENLIILANNSLSSNGNVTESGCKECEELEEKNIKEFLQSFVHIVQMFINTGGGGSGHHHHHHHHGGGLNDIFEAQKIEWHE |
| 119 | no binding |  | hIL-15 V49R/D8N (ligand) NWVNVISNLKKIEDLIQSMHIDATLYTESDVHPSCKVTAMKCFLLELQRISLESGDASIHDTVENLIILANNSLSSNGNVTESGCKECEELEEKNIKEFLQSFVHIVQMFINTGGGGSGHHHHHHHHGGGLNDIFEAQKIEWHE |
| 265 |  | > 500 | hIL-15 V49R/V31S (ligand) NWVNVISDLKKIEDLIQSMHIDATLYTESDSHPSCKVTAMKCFLLELQRISLESGDASIHDTVENLIILANNSLSSNGNVTESGCKECEELEEKNIKEFLQSFVHIVQMFINTGGGGSGHHHHHHHHGGGLNDIFEAQKIEWHE |
| 121 | no binding |  | hIL-15 V49R/D61N (ligand) NWVNVISDLKKIEDLIQSMHIDATLYTESDVHPSCKVTAMKCFLLELQRISLESGDASIHNTVENLIILANNSLSSNGNVTESGCKECEELEEKNIKEFLQSFVHIVQMFINTGGGGSGHHHHHHHHGGGLNDIFEAQKIEWHE |
| 106 | no binding |  | hIL-15 V49R/I68D (ligand) NWVNVISDLKKIEDLIQSMHIDATLYTESDVHPSCKVTAMKCFLLELQRISLESGDASIHDTVENLIDLANNSLSSNGNVTESGCKECEELEEKNIKEFLQSFVHIVQMFINTGGGGSGHHHHHHHHGGGLNDIFEAQKIEWHE |
| 164 | no binding |  | hIL-15 V49R/E64K (ligand) NWVNVISDLKKIEDLIQSMHIDATLYTESDVHPSCKVTAMKCFLLELQRISLESGDASIHDTVKNLIILANNSLSSNGNVTESGCKECEELEEKNIKEFLQSFVHIVQMFINTGGGGSGHHHHHHHHGGGLNDIFEAQKIEWHE |
| 202 | no binding |  | hIL-15 V49R/N65A (ligand) NWVNVISDLKKIEDLIQSMHIDATLYTESDVHPSCKVTAMKCFLLELQRISLESGDASIHDTVEALIILANNSLSSNGNVTESGCKECEELEEKNIKEFLQSFVHIVQMFINTGGGGSGHHHHHHHHGGGLNDIFEAQKIEWHE |
| 73.1 | no binding |  | hIL-15 V49R/N4K (ligand) NWVKVISDLKKIEDLIQSMHIDATLYTESDVHPSCKVTAMKCFLLELQRISLESGDASIHDTVENLIILANNSLSSNGNVTESGCKECEELEEKNIKEFLQSFVHIVQMFINTGGGGSGHHHHHHHHGGGLNDIFEAQKIEWHE |
| 261 |  | 248 | hIL-15 V49R/S29K (ligand) NWVNVISDLKKIEDLIQSMHIDATLYTEKDVHPSCKVTAMKCFLLELQRISLESGDASIHDTVENLIILANNSLSSNGNVTESGCKECEELEEKNIKEFLQSFVHIVQMFINTGGGGSGHHHHHHHHGGGLNDIFEAQKIEWHE |

Continued, binder first:

| Binder | Kd [1] [nM] | binding result [2] | Kd [3] [nM] |
| --- | --- | --- | --- |
| hIL-15 V49R/D8S (ligand) NWVNVISSLKKIEDLIQSMHIDATLYTESDVHPSCKVTAMKCFLLELQRISLESGDASIHDTVENLIILANNSLSSNGNVTESGCKECEELEEKNIKEFLQSFVHIVQMFINTGGGGSGHHHHHHHHGGGLNDIFEAQKIEWHE | 124 | no binding |  |
| hIL-15 V49R/D61S (ligand) NWVNVISDLKKIEDLIQSMHIDATLYTESDVHPSCKVTAMKCFLLELQRISLESGDASIHSTVENLIILANNSLSSNGNVTESGCKECEELEEKNIKEFLQSFVHIVQMFINTGGGGSGHHHHHHHHGGGLNDIFEAQKIEWHE | 102 | no binding |  |
| hIL-15 V49R/I68S (ligand) NWVNVISDLKKIEDLIQSMHIDATLYTESDVHPSCKVTAMKCFLLELQRISLESGDASIHDTVENLISLANNSLSSNGNVTESGCKECEELEEKNIKEFLQSFVHIVQMFINTGGGGSGHHHHHHHHGGGLNDIFEAQKIEWHE | 104 | no binding |  |
| hIL-15 V49R/S29D (ligand) NWVNVISDLKKIEDLIQSMHIDATLYTEDDVHPSCKVTAMKCFLLELQRISLESGDASIHDTVENLIILANNSLSSNGNVTESGCKECEELEEKNIKEFLQSFVHIVQMFINTGGGGSGHHHHHHHHGGGLNDIFEAQKIEWHE | 121 |  | 238 |
| hIL-15 V49R/D8K (ligand) NWVNVISKLKKIEDLIQSMHIDATLYTESDVHPSCKVTAMKCFLLELQRISLESGDASIHDTVENLIILANNSLSSNGNVTESGCKECEELEEKNIKEFLQSFVHIVQMFINTGGGGSGHHHHHHHHGGGLNDIFEAQKIEWHE | 101 | no binding |  |
| hIL-15 V49R/N65S (ligand) NWVNVISDLKKIEDLIQSMHIDATLYTESDVHPSCKVTAMKCFLLELQRISLESGDASIHDTVESLIILANNSLSSNGNVTESGCKECEELEEKNIKEFLQSFVHIVQMFINTGGGGSGHHHHHHHHGGGLNDIFEAQKIEWHE | 158 | no binding |  |
| hIL-15 V49R/I68K (ligand) NWVNVISDLKKIEDLIQSMHIDATLYTESDVHPSCKVTAMKCFLLELQRISLESGDASIHDTVENLIKLANNSLSSNGNVTESGCKECEELEEKNIKEFLQSFVHIVQMFINTGGGGSGHHHHHHHHGGGLNDIFEAQKIEWHE | 94.2 | no binding |  |
| hIL-15 V49R/V31A (ligand) NWVNVISDLKKIEDLIQSMHIDATLYTESDAHPSCKVTAMKCFLLELQRISLESGDASIHDTVENLIILANNSLSSNGNVTESGCKECEELEEKNIKEFLQSFVHIVQMFINTGGGGSGHHHHHHHHGGGLNDIFEAQKIEWHE | 129 |  | 269 |
| hIL-15 V49R/K11P (ligand) NWVNVISDLKPIEDLIQSMHIDATLYTESDVHPSCKVTAMKCFLLELQRISLESGDASIHDTVENLIILANNSLSSNGNVTESGCKECEELEEKNIKEFLQSFVHIVQMFINTGGGGSGHHHHHHHHGGGLNDIFEAQKIEWHE |  | no binding |  |
| hIL-15 V49R/D61K (ligand) NWVNVISDLKKIEDLIQSMHIDATLYTESDVHPSCKVTAMKCFLLELQRISLESGDASIHKTVENLIILANNSLSSNGNVTESGCKECEELEEKNIKEFLQSFVHIVQMFINTGGGGSGHHHHHHHHGGGLNDIFEAQKIEWHE | 116 | no binding |  |
| hIL-15 V49R/S29N (ligand) NWVNVISDLKKIEDLIQSMHIDATLYTENDVHPSCKVTAMKCFLLELQRISLESGDASIHDTVENLIILANNSLSSNGNVTESGCKECEELEEKNIKEFLQSFVHIVQMFINTGGGGSGHHHHHHHHGGGLNDIFEAQKIEWHE | 154 |  | 322 |
